Measurements taken from the DeepSol protein solubility set.

Assay: soluble on expression in E. coli; label from the status in PepcDB or PDB records

Sequence	soluble on expression in E. coli
MIVDLPDTTTTAVNKKLDELREKIGAVAMGRVLTLIIAPDSEAMLEESIEAANDASHEHPSRIIVTMRGDPYADRPRLDAQLRVGADAGAGEFVVLRLSGPLAGHADSVVIPFLLPDIPVVAWWPDIAPAVPAQDALGKLAIRRITDATNAIDPLSAIKSRLAGYGAGDTDLAWSRITYWRALLTSAVDQPRHEPIESALVSGLKTEPALDVLAGWLASRIEGPVRRAVGELKVELVRNSETIVLSRPQEGITATLTRTGKPDALVPLARRVTGECLAEDLRRLDPDEIYCAALEGIKKVQYR	not soluble
MIVREGSAEILVPEVYHGPGKRGTGFYNADQKINRDITIEFIKKMGIRNVLDGFGGTGIRGIRISKETDSAVTISEVSPDSYRLIRDNVERNGSQASVINDSFECVLQHGAYEYVDVDPYGSPVPYLDAALMGVKRNGFLGVTATDQSALTGSVPHKTRIRYDALIKNDTFRHEMGIRLLIGYMAKRAASLGRFIDPLISIWHGHYYRVFVRVRKGFEGAGRMMQNLGYVNKHNLLSGIYQDMDEGPVWKGNLQDNAVAEAVLASAGHKAFNPEENRLLFCDLTDIARARHTSLPDIESVIDALSSSGHAASRTMFSPTGIKTDASCDLVESLMMDTLHRRSPA	not soluble
MIVRGGGDLATGVIQKLWHVGFKILVLETECPLAIRRTVSVCDAIFQKEQRVEDLVAVRITSLKDCAKCWQQNKLPVFVDQTASAIQQLKPLIVIDAILAKKNLGTHRGMAPITIALGPGFSAPQDVDVVIETMRGHRLGRLYFEGTALPNTGIPGEIGGKSAERVVHAPASGQVTHLKNIGDLVLKGEALFLIDQVPVYSPLTGTLRGLISEKVTCYQGLKCADVDPRPVEKVDCLTISDKARALGGAVLEAIFMIGRRKNVLLEHHHHHH	soluble
MIVTSLEDLRSRLRAYVSENGLRHTPERYSILEVAYNLKKIFTPDDLFDLTRENGLPVSLSTVYNTLTLLERCGIVLRLPSPETKYQYLMASFAEQCPLLFCTECAQFSTYYRRNVKSILADKDLRPPRFSYRQAIICLYGICDKCRKKQSALKKAADKAAPKKKK	not soluble
MIWIAVDRVGKKFINCSFGSRGTETGQLLWEKLEKKEIGEVMTDHWRAYAAFLPETIHTQSKAETYTVEGYNSILRHFLARLRRKTKCYTKSLEMLKYSVLLLMKYRNRELTIFHASSVKLEHHHHHH	not soluble
MKAANSGRTAAALECFERVVKLQSTPVNWSYLAFCVARERQQFEHATRLCEEAVRREPRSSVLYLNLGKVYLLSGRKDDAIRTFRQGLLYERNTLIESELRRLGLRKPPVLNFLAREHPVNKYLGIMLKKLKIRLEHHHHHH	not soluble
MKAFNYYAPTEIIFGCGRVQEIGSITAQYGKKALLVTVPEFPEVKELYEKVKKSLRENGVEVVHFDGVIPNPTTDVVTEGANMAKAAGVDVVIGLGGGSSIDTAKAIAVEATHPGTAWDYNCHTPGPTSATLPIIAIGTTAGTGSQCTQCAVITKTSEKDKSAIWHKNIFPKVAIVDPEVTVTMPKSVTAQTGFDAFAHNFEAYLSVKTSPLVEMMAIEAIKMIKEYLPKALENPNDIEARSKMSLADTLGGLTNSNAGVTLPHGLGMQVGGHAPHVSHGQALAIIYPQFTRYTYAWAIEKFAKVGRIFNPALNELSDEEAAKEACVAIDDFLKKIGLWIGFKDVNVTKEQIREIADDGQVLGDYLNNPRVATIDEMYELLMNCYERKE	soluble
MKAIILAGGHSVRFGKPKAFAEVNGETFYSRVIKTLESTNMFNEIIISTNAQLATQFKYPNVVIDDENHNDKGPLAGIYTIMKQHPEEELFFVVSVDTPMITGKAVSTLYQFLVSHLIENHLDVAAFKEDGRFIPTIAFYSPNALGAITKALHSDNYSFKNIYHELSTDYLDVRDVDAPSYWYKNINYQHDLDALIQKLLEHHHHHH	soluble
MKALALIAHDAKKDEMVAFCLRHKDVLARYPLLATGTTGARIQEATGLAVERVLSGPLGGDLQIGARVAEGKVLAVVFLQDPLTAKPHEPDVQALMRVCNVHGVPLATNLVAAEALIAWIRKGTPQ	soluble
MKALIFAAGFGERMRPLTEHTPKPLLSVGGAPLIVWHLRKLAALGVDEAVINTSWLAEQFPQLLGDGSAYGLRLTYSYEGTTPLETGGGMLHALPLLGDAPFLLINGDIWTDFDFSRLSHAPKGLAELVLVDRPSYAARADFALDADGKVRVDLPATLTYSGIGMYRPALLRDWQSVNGPLPEQVGTAPRFALAPILRAKMAQGLIDGIHHPGRWTDVGTPQRLAALDAQLLGDGGLEHHHHHH	not soluble
MKAPFFNAPIFRQLIEFKSSTYTYIIGCHKTGKAVIIDPVVDTVSRDIQIIRDLNLDLIYGLNTHVHADHITGTNSLKTVFPTMKSVLSSKSGGEADKYVSDGEIIEIGGLKLEVRETPGHTNGCLTYVEHSLRSAFTGDALLIRACGRTDFQQGNPASLFDSVHDKIFTLPEDYVVYVGHNYNGVLQTTVWEEKNLNPRLTKSKDQFVEIMKNLKLNYPKQIDKAVPANMVDGKGH	not soluble
MKAQMESWQDIQEYVKNNKKKHKRRMANDAMKNVNELGFPFTYFEDTYQFAIKTSIGMVDYFGTTGTWVVRKNQDRGRGLKKLKKYLEHPVPTKEIKKTKGNQSWMKNNR	not soluble
MKASIYDFTLKELSQLLKPSFRAKQLYLWLYAKYKTSFKDMQNNFSKDFIAYLEREFALRTIEITHVRESVDGSKKYLFKSLRDNHTFEAVLLKMKDKKIDAETNAILEREKYTVCVSCQIGCQVGCSFCFTQKGGFVRNLKASEIIQQALLIKEDNNLPLEKALNIVFMGMGEPLNNLDEVCKAIEIFNTGMQISPKRITISTSGVADKIPILAGKNLGVQLAISLHAVDDKTRSSLMPLNKKYNIECVLNEVRKWPLEQRKRVMFEYLLIKDLNDSLDCAKKLLKLLNGIKSKVNLILFNPHEGSKFERPSLENARMFADFLNSKGLLCTIRESKALDIEAACGQLREKKLSQQILEHHHHHH	soluble
MKASTVLQIAYLVSQESKCCSWKVGAVIEKNGRIISTGYNGSPAGGVNCCDYAAEQGWLLNKPKHAIIQGHKPECVSFGSTDRFVLAKEHRSAHSEWSSKNEIHAELNAILFAAENGSSIEGATMYVTLSPCPDCAKAIAQSGIKKLVYCETYDKNKPGWDDILRNAGIEVFNVPKKNLNKLNWENINEFCGE	soluble
MKATPAQVPMKERIKEVATDMLIAHGSSGFRFQQIAQALDCTRGNIHYHYRHKHELVEDVTIEYCQRTIGHFDQIWLSDSTLSQKIQLSMQFNEMRYLKRNPQGDTSHPWSLIARMRLESALITPAAREALARYSHELQRSVVAGVRRAVEKGELRPDTPVEMVALPIIEMANSADPITRDAGRFDRLRQMYQAVDRLIHDAYGMAGHRPAP	not soluble
MKAVIVYASVHHGNTKKIAEAMASVISADVIDVTRKIKPDLSGYDVIGFASGVYFHTFHERIKKCIEENLFSKGQKVFLVATCGLGYRDYTKGIKDILAKKHVSFIGNFQCRGWDTYGIFGKIGGIAKKHPNDRDLKEAQQFVLKTVCEKTIDDVALLEHHHHHH	soluble
MKAVMLLSGGIDSSTLLYYLLDGGYEVHALTFFYGQKHSKEIESAEKVAKAAKVRHLKVDISTIHDLISYGALTGEEEVPKAFYSEEVQRRTIVPNRNMILLSIAAGYAVKIGAKEVHYAAHLSDYSIYPDCRKEFVKALDTAVYLANIWTPVEVRAPFVDMTKADIVRLGLKLGVPYELTWSCYEGGDRPCLSCGTCLERTEAFLANGVKDPLLSDEEWKNAVKIYEEMRARNEGKSD	not soluble
MKAVSPVRPSGRKAPSGCGGGELALRCLAEHGHSLGGSAAAAAAAAAARCKAAEAAADEPALCLQCDMNDCYSRLRRLVPTIPPNKKVSKVEILQHVIDYILDLQLALETHPALLRQPPPPAPPHHPAGTCPAAPPRTPLTALNTDPAGAVNKQGDSILCR	soluble
MKAYTKYLTFNTKKRRELIRITDEVKKAVEESEVKEGLCLVSSMHLTSSVIIQDDEEGLHEDIWEWLEKLAPYRPDYKHHRTGEDNGDAHLKNLLTHLQVVLPITNGKLDLGPWQEIFYAEFDGQRPKRVVIKIIGE	soluble
MKCSKCGREAIYFARYEGRYYCHKHFNELVEGKVKRTIRKYRMIKRGEKVGVAVSGGKDSVVLMHILAKLRKKFPFELVAITIDEGIKGYRDKSVEVARKNAELLGVEHHIYRFKDFIGFTLDETVEIMGPREERVGACSYCGVWRRWLLNKAAEELGVDKLALGLNLDDEVQVFLMNLMRGDVARLGRTGPYYEVIHEGLVPRIKPLREVPEKEIVLYAVLNNIEVDLSECPYATEAFRAEIRDWLNEMEEKHPGTKYQLLRSYDKIFPLLAKTYAKEVKLNRCKICGQPTSGEICKACQFRLQVKEKSENLKFSLTK	not soluble
MKDSAPELNVSSSETEEDKEEAKPDGEKDPDFNQSNGGTKRQKISHQNYIAYQKQVIRRSMRHRKVRGEKALLVSANQTLKELKIQIMHAFSVAPFDQNLSIDGKILSDDCATLGTLGVIPESVILLKADEPIADYAAMDDVMQGKDEFVLGIC	not soluble
MKDWQLPSHSGPYELRIEVQPKSHHRAHYETEGSRGAVKASAGGHPIVQLHGYLENEPLMLQLFIGTADDRLLRPHAFYQVHRITGKTVSTTSHEAILSNTKVLEIPLLPENSMRAVIDCAGILKLRNSDIELRKGETDIGRKNTRVRLVFRVHVPQPSGRTLSLQVASNPIECSQRS	soluble
MKEDTLLRKLVADGEGVGDDRKVQQIATFFRESRKEDAKTSVPEAVKVTKAIEEMYKKMEVAKNELADAKIVKRNRQEYRKLVNVLEEVPSRAETTRKLGEVKDDLERQHERQKVLEAKLMDRRNHLQAFMIILSNFQRFCAEDDDDDAEVMSNPGEDDDAASVTEKQQEDDVRK	not soluble
MKEEATTLPQQFIKKYRLLLGEEASDFFSALEQGSVKKGFRWNPLKPAGLDMVQTYHSEELQPAPYSNEGFLGTVNGKSFLHQAGYEYSQEPSAMIVGTAAAAKPGEKVLDLCAAPGGKSTQLAAQMKGKGLLVTNEIFPKRAKILSENIERWGVSNAIVTNHAPAELVPHFSGFFDRIVVDAPCSGEGMFRKDPNAIKEWTEESPLYCQKRQQEILSSAIKMLKNKGQLIYSTCTFAPEENEEIISWLVENYPVTIEEIPLTQSVSSGRSEWGSVAGLEKTIRIWPHKDQGEGHFVAKLTFHGQNQMHKEKKTRKKSKVQMTKEQEKLWTEFSNDFHYEATGRLLVFNDHLWEVPELAPSLDGLKVVRTGLHLGDFKKNRFEPSYALALATKKIENIPCLPITQKEWQSYTAGETFQRDGNQGWVLLVLDKIPVGFGKQVKGTVKNFFPKGLRFH	soluble
MKEFWVWVEPFDRKIVSVALEAGANAVVIPEKGRVEEVKKVGRITVIAPDGDLKLGEDVVYVLIKGKEDEERAAKYPPNVKVIVETTDWTVIPLENLIAQREELYAVVKNAQEAEVALQTLEKGVKGVVLKSRDINEIKKVGQIVSEHEEKLELVTIKITKILPLGLGDRVCVDTISLLHRGEGMLVGNSSGGMFLVHAETEENPYVAARPFRVNAGAVHMYIRVPNNRTKYLCELKAGDKVMVYDYKGRGRVTYVGRAKVERRPMLLIEGRYENKKLSCILQNAETIRLTKPDGTPISVSELKEGDEVLGYVEEAGRHFGMKVEETIIEK	not soluble
